From publication PMC10330843 (Cell, 2023)

Molecular target: recombinant full-length mouse cGAS (mouse, UniProt Q8C6L5 1-507)
Assay: co-IP

Chain of recombinant full-length mouse cGAS (Q8C6L5 whole entry): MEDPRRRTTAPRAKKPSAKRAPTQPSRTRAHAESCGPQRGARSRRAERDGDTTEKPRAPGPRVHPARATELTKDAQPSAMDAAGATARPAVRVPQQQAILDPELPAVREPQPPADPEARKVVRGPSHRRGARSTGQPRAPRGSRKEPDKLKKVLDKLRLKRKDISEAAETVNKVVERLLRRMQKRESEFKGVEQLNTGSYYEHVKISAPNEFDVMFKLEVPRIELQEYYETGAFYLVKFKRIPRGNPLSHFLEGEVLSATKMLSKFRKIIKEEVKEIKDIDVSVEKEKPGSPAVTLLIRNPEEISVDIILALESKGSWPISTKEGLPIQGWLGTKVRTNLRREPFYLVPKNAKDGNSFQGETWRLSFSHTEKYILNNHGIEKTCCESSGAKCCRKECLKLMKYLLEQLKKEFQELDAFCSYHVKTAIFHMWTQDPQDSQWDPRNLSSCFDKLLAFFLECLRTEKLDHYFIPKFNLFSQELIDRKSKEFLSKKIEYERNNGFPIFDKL

binding result: binds
B1: recombinant full-length mouse ZBP1 (natural protein, UniProt Q9QY24 1-411, looked up)
chain: MAEAPVDLSTGDNLEQKILQVLSDDGGPVKIGQLVKKCQVPKKTLNQVLYRLKKEDRVSSPEPATWSIGGAASGDGAPAIPENSSAQPSLDERILRFLEANGPHRALHIAKALGMTTAKEVNPLLYSMRNKHLLSYDGQTWKIYHSRQEGQDIAHSGVTQESPAIICQHNPVNMICQQGANSHISIANSNAIQIGHGNVIVREKACGEPGPRTSHPLPLAWDASAQDMPPVAHGAQYIYMDKSLLQQVQLGHHNEMSLVGDAGKHPSYSFSDSPPEVSTTTADPGASFNMQTFEPGPHPEGDTVQTVHIKSCFLEDATIGNGNKMTIHLRSKGEVMESGDSEEPKKEDTGTSSEATPPRSCQHTPSDSMLPTSELRAMALGDSSPQTTEPVLREHEVQDIESSQDTGLSKQ
